In publication doi:10.1101/414334 one finds stoichiometry N (CP12 per GAPDH tetramer) and stoichiometry N data, which are given here for 3 substances.

The target of test [1] is glyceraldehyde-3-phosphate dehydrogenase (GAPDH) of Thermosynechococcus elongatus (Thermosynechococcus elongatus BP-1). The test is described as follows: crystal structure.
Test [2] has the same target. The test is described as follows: crystal structure. The source holds these as a separate data set.
The target is the same in test [3]. Kind of test: cryo-EM structure.
Test [4] concerns the target phosphoribulokinase (PRK) of Thermosynechococcus elongatus, native (Thermosynechococcus elongatus (endogenous in T. elongatus cells)). The test is described as follows: cryo-EM structure.

“CP12 of Thermosynechococcus elongatus (natural protein)”: the results for the stoichiometry N (CP12 per GAPDH tetramer) in test [1], in test [2] and in test [3] were 4, 2 and 2, respectively.

On to “glyceraldehyde-3-phosphate dehydrogenase (GAPDH) of Thermosynechococcus elongatus (enzyme)”, for which the stoichiometry N in test [2] and in test [3] was 4 throughout.

In the case of “phosphoribulokinase (PRK) of Thermosynechococcus elongatus, native (enzyme)”, the stoichiometry N – broadly, the number of molecules, sites or subunits per partner or assembly – in test [4] was determined as 2.
